Reference: the supplement of paper PMC10567573

B1: TRIM15 (parent)
chain: QSSGKILLCPLCQEEEQAETPMAP
B2: TLE6 (parent)
chain: FWHDTLTEQLWRIFAGVHDEKAKP

Variants of: B1
Assay: protein stability index of a GFP-peptide fusion (GPS, HEK-293T) (PSI 1-6); higher = more stable
Conditions: c terminus: a fixed tail appended
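Note: lentivirally expressed fusions sorted by FACS into six bins by GFP to DsRed ratio, PSI derived from sequencing read proportions per bin multiplied by bin number.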

Protein stability index of substitutions, site by site:
S2: R 3.28; Y 2.85; N 2.86; C 2.88; K 3.47; L 2.67; I 2.62; F 2.18; H 3.32; V 2.56; E 4; W 2.38; A 3.52; T 3.34; D 3.78; M 2.79
G4: H 2.96; E 3.72; D 4.24; L 2.93; K 4.13; I 3.34; Q 3.29; M 3.3; P 3.24; A 3.07; C 4.14; F 2.49; N 2.76; R 3.72
Q1: L 3.13; E 3.98; P 2.73; G 3.8; R 3.35; M 2.63; S 3.28; V 2.87; I 3.27; D 3.99; F 1.4; Y 1.58; K 3.46; C 2.72; W 3.08; N 3.06; T 3.16; A 3.2
S3: L 3.3; T 3.58; E 3.79; A 3.62; I 3.31; P 3.23; Q 3.63; N 3.62; Y 2.82; C 2.33; R 3.73; H 2.99; G 3.34; M 3.24; K 3.21; V 3.57; D 3.07; F 3; W 2.16

Variants of: B2
Assay: as above
Conditions: c terminus: a fixed tail appended

Protein stability index of substitutions, site by site:
D4: Y 3.37; K 1.76; Q 2.29; S 1.83; I 2.06; H 1.8; T 1.73; V 2.09; R 1.58; N 1.71; W 1.29; C 1.91; L 1.74; A 1.49
F1: H 1.96; A 2.28; C 2.42; S 1.91; D 2.17; Y 2.05; E 1.81; K 2.44; P 2.18; W 1.82; T 2.01; N 2.12; I 1.95; V 1.8
T5: V 2.62; C 1.34; E 1.91; S 1.98; Q 1.22; M 1.96; K 2.78; R 1.53; I 2.26; A 1.25; P 2.73; H 2.23
A22: F 3.14; T 2.15; N 1.94; I 1.74; G 1.88; D 1.9; K 1.64; R 1.84; L 1.58; M 2.03; S 2.06
K23: M 2.8; V 2.71; A 1.78; D 1.49; C 2.13; I 1.64; F 3.09; Q 1.83; W 2.25; R 1.52; Y 1.92; T 2.3
I13: L 1.69; V 1.72; Y 2.1; E 2.99; Q 2.54; F 1.96; R 2.02; H 1.94; D 1.78; N 1.59
H18: Y 2.35; K 1.53; R 1.84; S 2.72; I 2.92; G 1.79; Q 1.5; D 2.1; T 2.13
F14: N 1.45; Q 1.52; C 2.62; I 2.56; D 1.61; E 2.19; V 2.35; L 1.8; A 1.65; K 2.61; S 1.75; Y 2.13; G 2.21
E20: C 1.79; A 2.37; W 2.86; K 1.87; S 2.41; F 1.82; D 2.62; N 2.19; M 2.88; H 1.46; R 1.24; G 1.91
R12: G 2.23; E 1.63; A 1.91; T 2.02; K 2.17; M 1.52; Q 1.94; W 2.47; C 2.88; P 2.43
W11: C 1.99; G 2.46; S 2.18; Y 2.87; P 3.12; A 2.37; K 2.52; V 1.56; L 1.85; R 2.22
P24: W 1.92; C 2.95; K 1.78; T 1.86; S 2.07; V 2.97; N 2.68; E 2.03; G 1.66; F 2.44; D 1.65; H 2.1; Q 1.9
V17: Q 2.06; M 1.93; D 1.92; C 1.47; P 1.65; G 2.26; S 1.85; E 1.83; Y 1.54
Q9: N 2.45; V 4.83; Y 1.65; F 1.97; C 3.67; P 2.69; I 2.55; E 1.58; D 1.97; L 1.79; S 2.04; T 2.38; H 2.59
G16: V 2.85; K 2.12; T 1.62; Q 1.89; R 1.6; P 3.4; A 1.88; D 2.06; H 2.26; L 1.64; W 2.23
K21: C 1.51; R 1.31; W 2.44; H 1.69; F 2.72; P 1.47
D19: H 1.65; C 2.06; A 2.33; Q 1.22; S 1.79; L 1.39; R 2.35; T 2.7; W 3.85; P 1.8; I 2.08; V 3.94; K 1.7
L6: M 1.85; R 2.53; G 1.77; C 1.97; T 1.81; N 2.31; Q 2.31; Y 1.11; W 1.27; H 2.35; S 2.66; D 1.46
L10: C 1.94; T 1.74; M 1.88; R 1.6; H 2.54; A 2.17; K 2.59; W 2.42; G 2.24; Q 2.19
H3: R 1.88; P 2.41; N 2.7; T 2.75; G 1.82; S 1.72; C 1.95; A 3.32; Y 1.91; E 2.47; W 3.07; I 2.7
W2: Y 1.85; C 1.66; R 2.46; D 2.61; L 2.54; H 3; G 1.69; M 1.42; I 2.26
A15: C 2.23; S 2.43; V 2.82; I 1.79; L 2.41; T 1.89; F 1.73; Q 1.61; G 2.02; D 1.86; R 1.94
T7: F 2.03; E 1.42; Q 2.46; M 2.19; P 2.01; S 2.07; I 2.04; R 1.89; W 2
E8: W 2.35; A 1.66; C 1.62; H 2.52; N 1.79; F 2.17; S 1.64; Q 2.64; Y 2.53; T 1.74; K 2.04; D 2.02
